{"source": "patent US20070166384A1", "about": "“Methods , composition and preparations for delivery of immune response modifiers” (priority 2004, published 2007)", "key": {"[1]": {"assay": "Solubility in normal saline and phosphate buffered saline (saturated solutions, 25° C., 7 days, HPLC)", "type": "physicochemical", "details": "for Solubility Fold Increase: Example 6 over IRM2; for solubility at 7 days: thermodynamic from solid", "method": "The solubility of IRM2 and the IRM-polymer complex exemplified in Example 6 was determined in normal saline and phosphate buffered saline (PBS) at pH 7.4. Each compound was added to each medium until saturation had been reached. Vials containing the saturated solutions were capped and placed into a shaking water bath at 25° C. After 7 days the saturated solutions were filtered and analyzed for compound content on an HPLC using a Zorbax Bonus-RP 150×4.6 mm 5 μm particle size column. IRM2 was eluted with a 25:75 ratio of 0.05% trifuoro-acetic acid (TFA) in Acetonitrile to 0.1% TFA in water. Example 6 was eluted with a 10:90 ratio of 0.05% TFA in Acetonitrile to 0.1% TFA in water for three minutes, gradient to a 75:25 ratio of 0.05% TFA in Acetonitrile to 0.1% TFA in water for seven minutes and held at the 75:25 ratio for eight minutes. All HPLC runs were set at a flow rate of 1 mL/min, 20 μL injection volume, and a 254 nm UV detection wavelength. Quantitation was performed against external standards. Results are shown in Table 5 expressed in millimolar (mM) and solubility fold increase of Example 6 over IRM2."}, "[2]": {"system": "Peripheral blood mononuclear cells (PBMC)", "assay": "Cytokine induction in an in vitro human blood cell system (IFN-α and TNF-α secreted into culture media)", "type": "cell-based", "details": "18 to 24 hours; for Minimum Effective Concentration (µM) IFN-α: lowest tested concentration inducing IFN-α over fixed level (usually 20 pg/mL); for Minimum Effective Concentration (µM) TNF: lowest tested concentration inducing TNF-α over fixed level (usually 40 pg/mL)", "source_text": "An in vitro human blood cell system is used to assess cytokine induction. Activity is based on the measurement of interferon (α) and tumor necrosis factor (α) (IFN-α and TNF-α, respectively) secreted into culture media as described by Testerman et. al. in “Cytokine Induction by the Immunomodulators Imiquimod and S-27609,” Journal of Leukocyte Biology, 58, 365-372 (September, 1995).\nWhole blood from healthy human donors is collected by venipuncture into vacutainer tubes or syringes containing EDTA. Peripheral blood mononuclear cells (PBMC) are separated from whole blood by density gradient centrifugation using HISTOPAQUE-1077 (Sigma, St. Louis, Mo.) or Ficoll-Paque Plus (Amersham Biosciences Piscataway, N.J.). Blood is diluted 1:1 with Dulbecco's Phosphate Buffered Saline (DPBS) or Hank's Balanced Salts Solution (HBSS). Alternately, whole blood is placed in Accuspin (Sigma) or LeucoSep (Greiner Bio-One, Inc., Longwood, Fla.) centrifuge frit tubes containing density gradient medium. The PBMC layer is collected and washed twice with DPBS or HBSS and re-suspended at 4×10^6 cells/mL in RPMI complete. The PBMC suspension is added to 96 well flat bottom sterile tissue culture plates containing an equal volume of RPMI complete media containing test compound.\nThe compounds are solubilized in dimethyl sulfoxide (DMSO). The DMSO concentration should not exceed a final concentration of 1% for addition to the culture wells. The compounds are generally tested at concentrations ranging from 30-0.014 μM. Controls include cell samples with media only, cell samples with DMSO only (no compound), and cell samples with reference compound. […]\nFollowing incubation the plates are centrifuged for 10 minutes at 1000 rpm (approximately 200×g) at 4° C. […] The samples are analyzed for IFN-α by ELISA and for TNF-α by IGEN/BioVeris Assay.\nIFN-α concentration is determined with a human multi-subtype calorimetric sandwich ELISA (Catalog Number 41105) from PBL Biomedical Laboratories, Piscataway, N.J. Results are expressed in pg/mL.\nThe TNF-α concentration is determined by ORIGEN M-Series Immunoassay and read on an IGEN M-8 analyzer from BioVeris Corporation, formerly known as IGEN International, Gaithersburg, Md. […]\nAnalysis of the data has two steps. First, the greater of the mean DMSO (DMSO control wells) or the experimental background (usually 20 pg/mL for IFN-α and 40 pg/mL for TNF-α) is subtracted from each reading. If any negative values result from background subtraction, the reading is reported as\n“*”, and is noted as not reliably detectable. […] The adjustment ratio is the area of the reference compound in the new experiment divided by the expected area of the reference compound based on the past 61 experiments (unadjusted readings). […]"}, "[3]": {"assay": "Liberation of IRM1 from IRM-polymer complex in buffered saline at 37° C., measured by HPLC", "type": "physicochemical", "details": "0.1 mg/ml", "method": "Samples were placed in a thermostated autosampler with the temperature controlled at 37° C. Samples were injected periodically over the course of the experiment and the % of IRM1 liberated was measured by an HPLC system equipped with a thermostatted autosampler set at 37° C. and a Zorbax SB C18, (3.0×150 mm), 3.5 μm particle size column with a column temperature of 40° C. Samples were eluted with a mobile phase of 1% acetic acid in water and methanol. The mobile phase was run at a ratio of 55:45 of 1% acetic acid in water to methanol for five minutes, gradient to 5:95 for ten minutes, held at 5:95 for five minutes, gradient to 55:45 in less than a minute, and held at 55:45 for ten minutes. All HPLC runs were set at a flow rate of 0.5 mL/min, 20 μL injection volume, and a 254 nm UV detection wavelength. The % IRM1 was determined by normalizing the IRM1 peak area by the total peak area of the chromatogram."}, "[4]": {"details": "normal saline, saline or isotonic, Saline, 25° C."}}, "data": [{"smiles": "CCCCc1nc2c(N)nc3ccccc3c2n1CCCCNC(=O)CCOCCOCCOCCOCCOCCOCCOCCOCCOCCOCCOCCOCCOCCOCCOCCOCCOCCOCCOCCOCCOCCOCCOCCOCCOCCOCCOCCOCCOCCOCCOCCOCCOCCOCCOCCOCCOCCOCCOCCOCCOCCOCCOCCOCCOCCOC", "note": "[Example 6]", "values": [{"measurement": "Solubility Fold Increase", "setting": "[1]; Phosphate Buffered Saline, pH 7.4", "value": 75.97}, {"measurement": "Solubility Fold Increase", "setting": "[1]; Saline", "value": 142.50}, {"measurement": "solubility at 7 days", "setting": "[1]; aqueous buffer, Phosphate Buffered Saline, pH 7.4, 25° C.", "value": 5590, "unit": "µM"}, {"measurement": "solubility at 7 days", "setting": "[1]; [4]", "value": 5970, "unit": "µM"}, {"measurement": "Minimum Effective Concentration (µM) IFN-α", "setting": "[2]", "value": 30, "unit": "µM"}, {"measurement": "Minimum Effective Concentration (µM) TNF", "setting": "[2]", "value": "> 30", "unit": "µM"}]}, {"smiles": "CCOCc1nc2c(NC(=O)CCOCCOCCOCCOCCOCCOCCOCCOCCOCCOCCOCCOCCOCCOCCOCCOCCOCCOCCOCCOCCOCCOCCOCCOCCOCCOCCOCCOCCOCCOCCOCCOCCOCCOCCOCCOCCOCCOCCOCCOCCOCCOCCOCCOCCOCCOC)nc3ccccc3c2n1CC(C)(C)O", "note": "[Example 7]", "values": [{"measurement": "Minimum Effective Concentration (µM) IFN-α", "setting": "[2]", "value": 3.33, "unit": "µM"}, {"measurement": "Minimum Effective Concentration (µM) TNF", "setting": "[2]", "value": 30, "unit": "µM"}, {"measurement": "% IRM1", "setting": "[3]; Citrate Buffered Saline, pH 4, 37° C., time 0 hr", "value": 2.9, "unit": "%"}, {"measurement": "% IRM1", "setting": "[3]; Citrate Buffered Saline, pH 4, 37° C., time 6 hr", "value": 5.7, "unit": "%"}, {"measurement": "% IRM1", "setting": "[3]; Citrate Buffered Saline, pH 4, 37° C., time 10 hr", "value": 7.4, "unit": "%"}, {"measurement": "% IRM1", "setting": "[3]; Citrate Buffered Saline, pH 4, 37° C., time 13 hr", "value": 9.4, "unit": "%"}, {"measurement": "% IRM1", "setting": "[3]; Citrate Buffered Saline, pH 4, 37° C., time 17 hr", "value": 10.6, "unit": "%"}, {"measurement": "% IRM1", "setting": "[3]; Citrate Buffered Saline, pH 4, 37° C., time 20 hr", "value": 12.1, "unit": "%"}, {"measurement": "% IRM1", "setting": "[3]; Citrate Buffered Saline, pH 4, 37° C., time 23 hr", "value": 13.0, "unit": "%"}, {"measurement": "% IRM1", "setting": "[3]; Citrate Buffered Saline, pH 4, 37° C., time 28 hr", "value": 16.5, "unit": "%"}, {"measurement": "% IRM1", "setting": "[3]; Citrate Buffered Saline, pH 4, 37° C., time 30 hr", "value": 17.1, "unit": "%"}, {"measurement": "% IRM1", "setting": "[3]; Phosphate Buffered Saline, pH 7.4, 37° C., time 1 hr", "value": 1.3, "unit": "%"}, {"measurement": "% IRM1", "setting": "[3]; Phosphate Buffered Saline, pH 7.4, 37° C., time 5 hr", "value": 1.5, "unit": "%"}, {"measurement": "% IRM1", "setting": "[3]; Phosphate Buffered Saline, pH 7.4, 37° C., time 10 hr", "value": 1.7, "unit": "%"}, {"measurement": "% IRM1", "setting": "[3]; Phosphate Buffered Saline, pH 7.4, 37° C., time 13 hr", "value": 1.8, "unit": "%"}, {"measurement": "% IRM1", "setting": "[3]; Phosphate Buffered Saline, pH 7.4, 37° C., time 18 hr", "value": 1.9, "unit": "%"}, {"measurement": "% IRM1", "setting": "[3]; Phosphate Buffered Saline, pH 7.4, 37° C., time 20 hr", "value": 2.1, "unit": "%"}, {"measurement": "% IRM1", "setting": "[3]; Phosphate Buffered Saline, pH 7.4, 37° C., time 23 hr", "value": 2.1, "unit": "%"}, {"measurement": "% IRM1", "setting": "[3]; Phosphate Buffered Saline, pH 7.4, 37° C., time 27 hr", "value": 2.3, "unit": "%"}, {"measurement": "% IRM1", "setting": "[3]; Phosphate Buffered Saline, pH 7.4, 37° C., time 30 hr", "value": 2.4, "unit": "%"}]}, {"smiles": "CCCCc1nc2c(N)nc3ccccc3c2n1CCCCNC(C)=O", "note": "[IRM 2, N-[4-(4-Amino-2-butyl-1H-imidazo[4,5-c]quinolin-1-yl)butyl]acetamide, reference compound]", "values": [{"measurement": "solubility at 7 days", "setting": "[1]; [4]", "value": 40, "unit": "µM"}, {"measurement": "solubility at 7 days", "setting": "[1]; phosphate buffered saline (PBS), aqueous buffer, Phosphate Buffered Saline, pH 7.4, 25° C.", "value": 70, "unit": "µM"}]}]}
